Reference: patent US11344542B2, “Treatment of aging-associated disease with modulators of leukotriene A4 hydrolase” (Alkahest, Inc., priority 2018, dated 2022)

What was measured:
Type in all cases: in vivo, mouse
[1] = system: 8-week old (young) wild-type (C57BL/6) mice; assay: Open field test in young mice treated with recombinant human LTA4H protein
Procedure: The open field test was used to evaluate general locomotor activity and exploratory behavior in a novel environment. It consisted of a square arena (50 cm×50 cm). Mice were brought to the experimental room for at least 30 min of acclimation to the experimental room conditions (dim lighting) prior to testing. Mice were placed in the center of the arena and tracked using automated software (CleverSys or San Diego Instruments) for 15 min. Total distance traveled, average velocity, and time spent in the peripheral and center zones were analyzed.
Recombinant human LTA4H (Bio-techne, 4008-SN) was buffer-exchanged into sterile PBS and dosed at 4.6 ug/150 uL by tail vein i.v. injection. SC-57461A (Cayman Chemical, 423169-68) stock solution was prepared at 10 mg/mL in DMSO. Stock solution was diluted into sterile PBS immediately prior to p.o. dosing to a final concentration of 10% DMSO and 1 mg/mL SC-57461A. Mice were p.o. dosed at 5 mg/kg. CP-105,696 (Sigma, PZ0363), Pinostilbene hydrate (Sigma, SML0098), and Montelukast (Cayman Chemical, 10008318) stock solutions were prepared at 30 mg/mL in EtOH/Solutol. Stock solutions were diluted into sterile PBS immediately prior to p.o. dosing to a final concentration of 10% EtOH and […] inhibitor. Administration to mice was performed p.o. at a dose of 10 mg/kg. Vehicle was 10% EtOH/Solutol and was dosed p.o. at a volume of 150 uL.
(§1) Young, 8-week old wild-type (WT; C57BL/6) mice were homogenized between groups by body weight. Following group determination, mice were injected intraperitoneally (IP) with BrdU (5-bromo-2′-deoxyuridine) formulated in PBS (phosphate buffered saline) at a final concentration of 10 mg/mL dosed at 150 mg/kg for 5 days Immediately following the BrdU dosing, group 1 was injected intravenously (IV) with PBS control and group 2 with recombinant human LTA4H protein daily for 7 consecutive days. One week after the completion of LTA4H administration, in week 3, mice in both treatment groups were injected IP with EdU (5-ethynyl-2′-deoxyuridine) formulated in PBS at a final concentration of 10 mg/mL and dosed at 50 mg/kg for 5 days. Behavioral assays were executed in week 5 and 6, and animals were sacrificed, and tissues collected immediately after completion of behavior testing in week 6. FIG. 3 depicts the treatment paradigm and injection timing for the study.
(§2) The initial study in young, 8-week old wild-type (WT; C57BL/6) mice was repeated in a second cohort of mice with additional timepoints and readouts. Mice were homogenized between 3 treatment groups by body weight. Group 1 (Vehicle) was injected intravenously (IV) with PBS control 3 times per week for 6 weeks, group 2 (LTA4H Pulse) with recombinant human LTA4H protein daily for 7 consecutive days, and group 3 (LTA4H Continuous) with recombinant human LTA4H protein 3 times per week for 6 weeks. In week 4 after the initiation of dosing, mice in all treatment groups were injected IP with BrdU (5-bromo-2′-deoxyuridine) formulated in PBS (phosphate buffered saline) at a final concentration of 10 mg/mL dosed at 150 mg/kg for 5 days. Behavioral assays were executed in week 5 and 6, and animals were sacrificed, and tissues collected immediately after completion of behavior testing in week 6. FIG. 10 depicts the treatment paradigm and injection timing for the study.

[2] = system: 8-week old (young) wild-type (C57BL/6) mice; assay: Y-maze in young mice treated with recombinant human LTA4H protein
Procedure: A large Y-maze test assessed short-term memory of the familiarity of a specific context. Mice were brought to the experimental room for at least 30 min of acclimation to the experimental room conditions (dim lighting) prior to testing. For the initial training trial, the mouse was placed at the end of one arm of a large Y-maze designated “start arm” (arm length: 15 inches). The third arm of the maze was blocked off, allowing the mouse to explore two of the three arms freely (“start arm” and “familiar arm”) for 5 min. Each arm contained spatial cues. Three hours later, the mouse was placed back into the maze in the “start arm,” and allowed to explore all three arms with the third arm unblocked (“novel arm”). Movements in and out of each arm were tracked using automated tracking software (CleverSys or San Diego Instruments). Testing was performed under dim lighting, and the apparatus was cleaned with 70% ethanol between trials. The time spent and number of entireties into the “novel arm” and “familiar arm” were analyzed, as well as total distance travelled and velocity as measures of general locomotor activity.
as §2, with “study. […]” for “study.”

[3] = system: mRNA levels of neuronal and glial genes; assay: qPCR of mRNA levels in young mice treated with recombinant human LTA4H protein; settings: paradigm 1; vs PBS
Procedure: Brain tissue was sectioned or lysed and analyzed for markers of neurogenesis and aging by standard histological and biochemical methods, including qRT-PCR, Western blot, ELISA, and immunohistochemistry.
as §1
FIG. 9 reports the results of quantitative polymerase chain reaction (qPCR) quantifying mRNA levels of vesicular glutamate […] (vglut1), synapsin 1 (syn1), synaptophysin (syp), early growth response 1 (egr1), doublecortin (dcx), beta III tubulin (tuj1), glial acidic fibrillary protein (gfap), SRY-Box 2 (sox2), oligodendrocyte transcription factor 2 in 3 months old (young) wild-type (C57BL/6) mice treated with recombinant human LTA4H protein or phosphate buffered saline (PBS) control. […] Egr1 is an immediate early gene and a reduction in expression is indicative of a depression of neuronal activity. Tuj1 is a neuronal marker and the reduction in expression points to detrimental effects on neurons. […] Overall the decreases in neuronal markers and trends towards decreases in oligodendrocyte markers indicate a detrimental effect on neuronal activity and integrity in LTA4H treated animals. […]

[4] = paradigm 1: IV daily for 7 consecutive days, vs PBS, tested week 5-6
[5] = paradigm 2: continuous dosing, IV 3 times per week for 6 weeks

B1: recombinant human LTA4H: Recombinant human LTA4H (Bio-techne, 4008-SN), leukotriene A4 hydrolase enzyme, dosed by tail vein i.v. injection (protein, UniProt P09960 2-611, looked up)
Leukotriene A-4 hydrolase: PEIVDTCSLASPASVCRTKHLHLRCSVDFTRRTLTGTAALTVQSQEDNLRSLVLDTKDLTIEKVVINGQEVKYALGERQSYKGSPMEISLPIALSKNQEIVIEISFETSPKSSALQWLTPEQTSGKEHPYLFSQCQAIHCRAILPCQDTPSVKLTYTAEVSVPKELVALMSAIRDGETPDPEDPSRKIYKFIQKVPIPCYLIALVVGALESRQIGPRTLVWSEKEQVEKSAYEFSETESMLKIAEDLGGPYVWGQYDLLVLPPSFPYGGMENPCLTFVTPTLLAGDKSLSNVIAHEISHSWTGNLVTNKTWDHFWLNEGHTVYLERHICGRLFGEKFRHFNALGGWGELQNSVKTFGETHPFTKLVVDLTDIDPDVAYSSVPYEKGFALLFYLEQLLGGPEIFLGFLKAYVEKFSYKSITTDDWKDFLYSYFKDKVDVLNQVDWNAWLYSPGLPPIKPNYDMTLTNACIALSQRWITAKEDDLNSFNATDLKDLSSHQLNEFLAQTLQRAPLPLGHIKRMQEVYNFNAINNSEIRFRWLRLCIQSKWEDAIPLALKMATEQGRMKFTRPLFKDLAAFDKSHDQAVRTYQEHKASMHPVTAMLVGKDLKVD
- anxiety as measured by percent time spent in periphery or center of the open field ([1]; paradigm 1: IV daily for 7 consecutive days, vs PBS): not affected
- average velocity in open field [1, 4]: no change
- total distance travelled in open field [1, 4]: no change
- average velocity in open field [1, 5]: significant reduction
- distance traveled in open field [1, 5]: significant reduction
- anxiety as measured by percent time spent in periphery or center of the open field ([1]; paradigm 2: either dosing paradigm (pulse or continuous)): not affected
- general locomotion as measured by total distance travelled and average velocity ([1]; paradigm 2: pulse dosing, IV daily for 7 consecutive days): impaired with continuous dosing of LTA4H, but not with pulse dosing
- memory of the familiar arm in Y-maze testing (novel vs familiar arm entries) ([2]; paradigm 2: continuous dosing): impaired memory
- memory of the familiar arm in Y-maze testing (novel vs familiar arm entries) ([2]; paradigm 2: pulse dosing): impaired memory
- number of entries into the familiar arm during Y-maze training ([2]; paradigm 2: pulse or continuous dosing, vs PBS): no differences
- egr1 mRNA expression (qPCR) [3]: significant decrease
- olig 2 mRNA expression (qPCR) [3]: trend towards a decrease
- tuj1 mRNA expression (qPCR) [3]: significant decrease
